The source of these data is patent EP4663661A1 (Hainan Simcere Zaiming Pharmaceutical Co., Ltd., dated 2025).

For assay [1], the target named is human CDH6 with EC5 removed, on HEK293T cells (HEK293T-hCDH6-EC5 deletion) (human) (UniProt P55285). In words: FACS, HEK293T-hCDH6-EC5 deletion cells. (Flow cytometry measures light scatter and fluorescence of single cells or particles in a stream.)
Assay [2] concerns the target human CDH6 with EC3 removed, on HEK293T cells (HEK293T-hCDH6-EC3 deletion) (human) (UniProt P55285). The assay can be described thus: FACS, HEK293T-hCDH6-EC3 deletion cells.
For assay [3], the target named is human CDH6 with EC4 removed, on HEK293T cells (HEK293T-hCDH6-EC4 deletion) (human) (UniProt P55285). In words: FACS, HEK293T-hCDH6-EC4 deletion cells.
The target in assay [4] is human CDH6 with EC2 removed, on HEK293T cells (HEK293T-hCDH6-EC2 deletion) (human) (UniProt P55285). In words: FACS, HEK293T-hCDH6-EC2 deletion cells.
The target of assay [5] is murine CDH6 protein (mCDH6 ECD-his) (mouse) (UniProt P97326). The assay can be described thus: ELISA, antigen coated.
Sequence of murine CDH6 protein (mCDH6 ECD-his) (mouse) (P97326 19-615 limits assumed, form in doubt): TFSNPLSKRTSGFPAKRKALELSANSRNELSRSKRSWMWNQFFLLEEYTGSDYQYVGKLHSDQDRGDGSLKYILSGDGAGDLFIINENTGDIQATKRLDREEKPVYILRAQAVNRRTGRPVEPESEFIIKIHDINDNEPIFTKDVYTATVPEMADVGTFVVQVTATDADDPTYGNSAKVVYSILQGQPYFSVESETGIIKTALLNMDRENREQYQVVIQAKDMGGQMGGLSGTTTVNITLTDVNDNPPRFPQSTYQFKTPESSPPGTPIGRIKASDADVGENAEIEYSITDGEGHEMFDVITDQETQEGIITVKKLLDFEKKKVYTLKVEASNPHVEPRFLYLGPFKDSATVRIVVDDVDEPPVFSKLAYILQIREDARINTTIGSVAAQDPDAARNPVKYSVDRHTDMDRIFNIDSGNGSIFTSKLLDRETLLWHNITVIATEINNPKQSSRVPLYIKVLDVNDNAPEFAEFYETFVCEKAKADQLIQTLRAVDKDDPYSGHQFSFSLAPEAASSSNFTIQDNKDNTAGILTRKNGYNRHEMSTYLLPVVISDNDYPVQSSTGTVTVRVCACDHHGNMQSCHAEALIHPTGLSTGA
In assay [6] the target is human CDH6 with EC1 removed, on HEK293T cells (HEK293T-hCDH6-EC1 deletion) (human) (UniProt P55285). In words: FACS, HEK293T-hCDH6-EC1 deletion cells.
In assay [7] the target is T1, his-tagged human CDH6 extracellular region protein (hCDH6 ECD-his) (human, UniProt P55285 54-615).
T1 construct: also called hCDH6-his; Human CDH6-his; not shown: his tag
T1 sequence: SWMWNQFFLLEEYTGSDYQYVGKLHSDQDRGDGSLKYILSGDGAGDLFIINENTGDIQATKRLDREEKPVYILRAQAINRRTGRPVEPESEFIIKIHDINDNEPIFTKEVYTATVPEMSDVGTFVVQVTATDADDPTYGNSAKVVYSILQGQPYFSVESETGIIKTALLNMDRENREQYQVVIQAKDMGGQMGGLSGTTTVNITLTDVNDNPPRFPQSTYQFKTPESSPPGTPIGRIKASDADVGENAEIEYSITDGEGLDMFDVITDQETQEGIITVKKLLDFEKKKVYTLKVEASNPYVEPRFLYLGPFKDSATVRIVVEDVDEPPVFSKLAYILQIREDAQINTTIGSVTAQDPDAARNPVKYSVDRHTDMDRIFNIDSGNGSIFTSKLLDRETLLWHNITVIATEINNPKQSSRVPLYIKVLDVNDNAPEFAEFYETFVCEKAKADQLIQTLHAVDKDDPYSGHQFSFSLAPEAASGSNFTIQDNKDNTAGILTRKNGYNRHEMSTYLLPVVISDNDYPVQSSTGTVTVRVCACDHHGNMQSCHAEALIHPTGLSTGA
In words: ELISA, antigen coated.

The target in assay [8] is T1, his-tagged human CDH6 extracellular …. The assay can be described thus: ELISA, antigen coated. This is another data set of the same source. For orientation: In an ELISA, binding on a coated surface is turned into a signal by an enzyme label.

Where two headings read alike, the source gives them in different places.

B1: CHI-CDH6-14 (antibody, human IgG1, kappa, V domains shown)
VH: QIQLQQSGPELVKPGTSVKISCKASGYTFTDNYINWVRQRPGQGLEWIGWIYPGTGNSYYNEKFKGKATLTVDTSSSTAYMQFSSLTSEDSAVYLCASSYGDSFDYWGQGTTLTVSS
VL: DIQMTQTTSSLSASLGNRVTISCRASQDIRNYLNWYQQKPDGTFKLLISYTSRLHSGVPSRFSGSGSGTDYSLTVSNLEPEDIATYYCQQYSQLPWTFGGGSRLEIKR
notes: also called CHI- hCDH6-14
One may read the EC50 as the concentration needed to bring the measured effect to its halfway point. A high value points to a need for much substance. With B1, the Max MFI stood at 4040 MFI in assay [1]; 755 MFI in assay [2]; 26600 MFI in assay [3]; 814 MFI in assay [4]; 7210 MFI in assay [6]. Further, in assay [5], the concentration giving a half-maximal response (EC50) amounted to 49 pM. Also, the Max OD450 worked out at 2.48 OD450 in assay [5], 2.65 OD450 in assay [7] and 2.5 OD450 in assay [8].
